Measured values: patent publication US20230295310A1 (ABCELLERA BIOLOGICS, published 2023)
Substitutions are numbered along the chain they refer to.

B1: mAb 286 (antibody, V domains shown)
VH: EVKLVESGGGVVRPGGSLRLSCAASGFTFDDYGMSWVRQAPGKGLEWVSGISWNGGSTGYADSVKGRFTISRDNAKNSLYLQMNSLRAEDTALYHCARDGVPVVKRRYYYYYMDVWGKGTTVTVSS
VL: EIVLTQSPDFQSVTPKEKVTITCRASQSIGSSLHWYQQKPDQSPKLLIKYASQSFSGVPSRFSGRGSGTDFTLTINSLEAEDAATYYCHQSGSLPQTFGQGTKVEIK
notes: VH and VL only
B2: mAb 290 (antibody, V domains shown)
VH: B1 VH with K3Q
VL: B1 VL with V19I, R65S, G92A
notes: VH and VL only
B3: mAb 304 (antibody, V domains shown)
VH: EVQLLESGGGLVQPGGSRRLSCAASGFTFSSYAMSWVRQAPGKGLEWVSVISGRGDNTNYADSVKGRFTISRENSKNILYLQMNSLRAEDTAVYYCAKKYSYYYYYMDVWGKGTTVTVSS
VL: SYELTQPLSVSVALGQTARITCGGNNIGSKDVHWYQQKPGQAPVLVIYRDSNRPSGIPERFSGSNSGNTATLTISRAQAGDEADYYCQVWDSRTAVFGGGTQLTAL
notes: VH and VL only
B4: mAb 306 (antibody, V domains shown)
VH: EVQLLESGGGLVQPGGSLRLSCAASGFTFNSYAMSWVRQAPGRGLEWVSAISGRKSTTYYADSVKGRFTISRDNSKNTLYLQMNSLRAEDTAVYYCAKLWNYYYYYMDVWGKGTTVTVSS
VL: B3 VL with R93S
notes: VH and VL only
B5: mAb 318 (antibody, V domains shown)
VH: EGQLLESGGGLVQPGGSLRLSCAASGFTFSRYAMSWIRQAPGKGLEWVSVIDGSGGDKNYADSVKGRFTISRDNSKNSLYLLMNGLRVEDTAIYFCAKKFSYYYYYMDVWGKGTSVTVSS
VL: B3 VL with S29G
notes: VH and VL only
B6: mAb 316 (antibody, V domains shown)
VH: B3 VH with S30R, S31T, S52N, N57D, E73D, Y80F
VL: B3 VL
notes: VH and VL only
B7: mAb 119 (antibody, V domains shown)
VH: EVQLVESGGGLVQPGRSLRLSCAASGFTFDDYTMHWVRQAPGKGLEWVSGISWNSGSIGYADSVKGRFTISRDNAKNSLYLQMNSLRAEDTALYYCSKDSSGYGYYLNYSLDVWGKGTTVTVSS
VL: EIVMTQSPATLSVSPGERATLSCRASQSVSNLAWYQQKPGQAPRLLIYGASTRATGIPARFSGSGSGTEFTLTISSLQSEDFAVYYCQQYNNWPHFGQGTRLQIK
notes: VH and VL only
B8: mAb 77 (antibody, V domains shown)
VH: EVQLVESGGGLVQPGGSLRLSCAASGFTFSNYWMSWVRQAPGKGLEWVANIKQDGSEKYYVDSVRGRFTISRDNAKKSLYLQMNSLRAEDTAVYYCARDNSNYAYWYFDIWGRGTLVTVSS
VL: DIQMTQSPSTLSVSVGDRVTITCRASQSIRKWLAWYQQKPGKAPKLLIFKASSLESGVPSRFSGSGSGTEFTLTISSLQPDDFATYYCQQYDTYSRTFGQGTKVEIK
notes: VH and VL only
B9: mAb 109 (antibody, V domains shown)
VH: QVQLVESGGGVVQPGRSLRLSCVASGFPFRSYGMHWVRQAPGKGLEWVAFIWYDGSNKYYADSVRGRFTISRDNFKKMVYLQMNSLRAEDTAVYYCARDLAGIYAFDVWGQGTVVTVSS
VL: EIVMTQSPATLSVSPGERATLSCRASQSVSSNLAWYQQKPGQAPRLLIYGASTRATGIPARFSGSGSGTEFTLTVSSLQSEDFAIYYCQQYNNWRPLTFGGGTKVEIK
notes: VH and VL only
B10: mAb 42 (antibody, V domains shown)
VH: QAQLVQSGSELKKPGASVKVSCKASGYTFTKHSMNWVRQAPGQGLEWMGWINTNTGNPTYAQGFTGRFVFSLDTSVTTAYLQISSLKAEDTAVYYCAREGDYDFWSGFFNFDYWGQGTLVTVSS
VL: DIQMTQSPSSLSASVGDRVTITCRASQGIRNDLGWYQQKPGKAPKRLIYAASSLQSGVPSRFSGSGSGAEFTLTISSLQPEDFATYYCLQHNSYPRTFGQGTKVEIK
notes: VH and VL only
B11: mAb 53 (antibody, V domains shown)
VH: QVQLVQSGAEVKKPGASVKVSCKASGYTFTSYDINWVRQATGQGLEWMGWMNPKSGKTGYAQKFQGRITMTRNTPISTVYMDLSSLRSEDTAVYYCAREGHYDFWTGYYSFDYWGQGTLVTVSS
VL: B10 VL with K39T, A69T, N92Y, R96Y, V104L
notes: VH and VL only
B12: mAb 71 (antibody, V domains shown)
VH: QVQLVQSGAEVRKPGASVKVSCKASGYTFTKYDVNWVRQAPGQGLEWMGWMNSNNGNIGYAQKFQGRVTMTRKTSISTAYMELSSLRSEDTAVYYCAREGHYDFWRGFYNFDYWGQGTLVTVSS
VL: B10 VL with G28D, R30K, A69T, S93F, R96I, K103R, V104L
notes: VH and VL only
B13: mAb 74 (antibody, V domains shown)
VH: EVQLVESGGGLVQPGRSLRLSCAASGFTFADYVMHWVRQAPGKGLEWVSGINWNNARIGYVGSVKGRFTISRDNAKNSLYLQMTSLRVEDTALYHCVREGNFDFWSAYYRGFLDLWGRGTLVTVSS
VL: B10 VL with N31S, A50G, S56G, A69T, R96Y, V104L
notes: VH and VL only
B14: mAb 55 (antibody, V domains shown)
VH: QVQLEQSGAEVKKPGASVKVSCKTSGYIFANYDINWVRQATGQGLEWMGWMNPKSGKAGYAQKFQGRVTMTSNTPINTAYMELSSLRSEDTAVYYCAREGHYDFWRGFYSFDYWGQGILVTVSS
VL: B10 VL with A50T, A69T, Y87F, H91Y, S93T, R96Y, V104L
notes: VH and VL only
B15: mAb 67 (antibody, V domains shown)
VH: EVQLVESGGDLVQPGRSLRLSCAASGFTFDDCVIHWVRQAPGKGLEWVSGITWNSGRIGYADSVKGRFTISRDNAKNSLYLQMNSLRVEDTALYYCAKEGNYDFWSTYYRGYFDLWGRGTLVTVSS
VL: B10 VL with K42I, S56G, S60L, A69T, R96Y, V104L
notes: VH and VL only
B16: mAb 73 (antibody, V domains shown)
VH: EVELVESGGGLVQPGRSLRLSCAASGFTFDDKVMHWVRQAPGKGLEWVSCINWNSGHIGYADSVKGRFTISRDNARTSLYLQMNSLRPEDTALYYCVREGNYDFWSGYYRGFFDLWGRGTLVTVSS
VL: B10 VL with S56G, A69T, N92T, R96F, V104L
notes: VH and VL only
B17: mAb 44 (antibody, V domains shown)
VH: B10 VH with K31R, S33A, T77S, Q82K, A97V
VL: B10 VL with Y36F, K45T
notes: VH and VL only
B18: mAb 47 (antibody, V domains shown)
VH: B10 VH
VL: B10 VL with A69T
notes: VH and VL only
B19: mAb 50 (antibody, V domains shown)
VH: B10 VH with K31R, S33A
VL: B10 VL with Y36F, K45T
notes: VH and VL only
B20: mAb 43 (antibody, V domains shown)
VH: B10 VH with T59M
VL: B10 VL
notes: VH and VL only
B21: mAb 320 (antibody, V domains shown)
VH: QVQLVESGGGVVQPGRSLRLSCAASGFTFRSYGMHWVRQAPGKGLEWVAIIWYDGSKKYYADSVKGRFTISRDNSKNILYLQMNSLRAEDTAVYYCARQEFNWNDGGYYYMDVWGKGTTVTVSS
VL: DIQLTQSPSFLSASVGDRVTITCRASQGISSYLDWCQQKPGKAPKLLIYAASTLQSGVPSRFSGSGSGTEFTLTISSLQPEDFATYYCQQLDNYPPTFGGGTKVEIK
notes: VH and VL only

Legend:
human CD3e/d = molecular target: T1, human CD3e/d (human, UniProt P07766 23-126; P04234 22-105); assay: SPR (Carterra LSA), mAb on chip
T1 construct: Bought soluble protein; also called hCD3e/d; human CD3/ed (Sino CT038-H2508H)
T1 sequence (P07766 23-126, chain 1 of 2): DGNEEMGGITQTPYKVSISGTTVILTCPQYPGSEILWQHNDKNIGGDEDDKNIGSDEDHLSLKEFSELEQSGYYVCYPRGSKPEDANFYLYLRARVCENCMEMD
T1 sequence (P04234 22-105, chain 2 of 2): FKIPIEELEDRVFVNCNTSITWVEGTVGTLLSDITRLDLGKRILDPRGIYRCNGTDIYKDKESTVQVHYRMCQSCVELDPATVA
Description: (§1) High-throughput surface plasmon resonance (SPR) coupled kinetic experiments were performed on a Carterra LSA® instrument equipped with an HC-30M chip type (Carterra, USA). The instrument uses two microfluidic modules, a single-flow cell (SFC) and a 96 printhead, to deliver samples to the chip surface via back-and-forth cycling of a fixed sample volume. An up to 384-ligand array is generated by docking the MFC onto each of the four nested print block locations in a serial manner.
(§2) The purified mAbs were immobilized on a Carterra LSA® HC-30M chip by direct coupling. The chip surface was first activated by flowing a freshly prepared 1:1:1 activation mix of 100 mM MES pH 5.5, 100 mM S-NHS, 400 mM EDC for 7 min. mAbs diluted to 10 μg/mL in 10 mM NaOAc pH 4.25+0.01% TWEEN®20 were then injected and printed onto the chip surface simultaneously using the MFC printhead for 10 min. Finally, the chip surface was quenched by flowing 1 M ethanolamine for 7 min (to block the excess reactive esters), followed by 2 wash steps of 15 s each in 25 mM MES pH 5.5. In addition to expressed and purified mAbs, relevant benchmarks and negative control mAbs were also printed on the chip surface.
(§3) The data were analyzed using the Carterra Kinetics analysis software. Briefly, the data were referenced with the interstitial reference spots and double-referenced to a buffer cycle, and then fit globally to a 1:1 Langmuir binding model to determine their apparent association (ka) and dissociation (kd) kinetic rate constants and binding affinity constants (KD).

human CD3e/g = molecular target: T2, human CD3e/g (human, UniProt P07766 23-126; P09693 23-116); assay: SPR (Carterra LSA), mAb on chip
T2 construct: Bought soluble protein; also called hCD3e/g; human CD3e/g (Acro CDD-C52W4)
T2 sequence (P07766 23-126, chain 1 of 2): as the sequence (P07766 23-126, chain 1 of 2) above
T2 sequence (P09693 23-116, chain 2 of 2): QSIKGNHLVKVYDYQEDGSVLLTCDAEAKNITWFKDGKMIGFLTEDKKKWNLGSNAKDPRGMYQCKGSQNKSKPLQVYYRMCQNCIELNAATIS
Description: as §1, §2, §3

| Binder | Kd (human CD3e/d) [nM] | Kd (human CD3e/g) [nM] |
| --- | --- | --- |
| B1 | 580 |  |
| B2 | 3200 |  |
| B3 | 120 |  |
| B4 | 250 |  |
| B5 | 84 |  |
| B6 | 70 |  |
| B7 | 37.2 |  |
| B8 | 286 |  |
| B9 | 21.7 |  |
| B10 |  | 19.4 |
| B11 |  | 258 |
| B12 |  | 113 |
| B13 |  | 9.83 |
| B14 |  | 85.7 |
| B15 |  | 18.6 |
| B16 |  | 16.2 |
| B17 |  | 19.1 |
| B18 |  | 20.1 |
| B19 |  | 34.3 |
| B20 |  | 21.7 |
| B21 |  | 0.69 |
